From patent US20230167188A1 (BIOLOJIC DESIGN, published 2023)

T1: recombinant human TNFR2 with 6×his tag (human, UniProt P20333 23-257, limits assumed)
T1 construct: Bought (Reprokine, Israel); also called TNFR2-His; hTNFR2-His; not shown: 6xHis tag
T1 sequence (looked up): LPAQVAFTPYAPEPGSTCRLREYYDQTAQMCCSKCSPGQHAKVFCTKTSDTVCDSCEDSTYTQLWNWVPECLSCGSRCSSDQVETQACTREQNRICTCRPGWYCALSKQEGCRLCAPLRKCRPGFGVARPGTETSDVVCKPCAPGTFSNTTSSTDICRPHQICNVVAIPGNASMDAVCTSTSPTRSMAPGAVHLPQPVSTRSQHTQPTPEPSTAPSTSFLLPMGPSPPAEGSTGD


How the values were obtained:
[1] = biological target: T1, recombinant human TNFR2 with 6×his tag; experiment: ELISA, IgG coated, soluble TNFR2-His titrated
Protocol: (§1) IgG binding affinity to TNFR2 was examined by ELISA. 96 well plates (Greiner Bio-One high binding) were coated with (50 ng/well) of the analyzed antibody and incubated overnight at 4° C. The plates were then washed three times with 300 μl PBS buffer containing 0.05% Tween 20 (PBS-T), blocked with 300μ PBS-T supplemented with 1% to 2% BSA, and incubated for 1 hour at room temperature. Antibodies-coated plates were washed three times with 300 μl PBS-T and incubated with serial dilutions of test ligand hTNFR2-His (Reprokine, Israel) in a final volume of […] for 1-2 hours. Plates were then washed three times with 300 μl PBS-T and incubated with 50 μl anti-HIS-HRP (Santa Cruz Biotechnology, USA, SC-8036HRP) conjugate that was diluted 1:250 in PBS. After an additional wash step of six washes, the reaction was developed with […] tetramethylbenzidine (TMB) reagent (Southern biotech, USA), and stopped with […] 0.5N H₂SO₄. Detection was done on a Synergy LX BioTek (BioTek, USA) plate reader with an absorbance filter set to […]. The binding affinity was determined by fitting the data to a specific binding non-linear regression model on Prisma 8 GraphPad software.
(§2) To test binding affinity of clones reformatted as IgG1 and IgG1LALA to TNFR2, an ELISA EC₅₀ binding experiment was conducted for each antibody.

[2] = biological target: T1, recombinant human TNFR2 with 6×his tag; experiment: ELISA, IgG coated, hTNFR2-His titrated, anti-His-HRP
Protocol: as §1, §2

[3] = biological target: T1, recombinant human TNFR2 with 6×his tag; experiment: yeast surface display, TNFR2-His titrated, flow cytometry MFI
Protocol: To determine the effective concentration₅₀ (EC₅₀) of TNFR2 binding to yeast scFv or Fab clones (EC₅₀— TNFR2 binding), specific clones were labeled at TNFR concentrations ranging from 0.1 nM to 1000 nM and analyzed on an FACS. Median fluorescence intensity (MFI) was determined for each TNFR2 concentration and EC₅₀ (TNFR2 binding) was calculated using Prisma 8 GraphPad (GraphPad, San Diego, USA) software.

| EC50 [1] [nM] | EC50 [2] [nM] | EC50 [3] [nM] | Binder |
| --- | --- | --- | --- |
| 66 | 66.3 |  | BDG30.080 (antibody, human IgG1, kappa, V domains shown, Human IgG1; also called IgG of CID_229) VH: EVQLVESGGGLVQPGGSLRLSCAASGFNIRAMYIHWVRQSPGKGLEWVADIDPTNGDTRYADSVKGRFTISADTSKNTAYLQMNSLRAEDTAIYYCTREGQDGYNAFDKWGQGTLVTVSS VL: DIQMTQSPILLSASVGDRVTITCRASQDVSTAVAWSQQRTNGSPRLLIYSASSLYSGVPSRFSGSRSGTDFTLTISSLQPEDIADYYCQQHRYTPPTFGAGTKVEIKR |
|  |  | 2.9 | CID_325 (scFv) scFv: EVQLVQSGPELKKPGASVKVSCKASGYTFTDLGIGWVRQAPGQGLEWMGWINTHTGEPFYADDFKGRFVFSLDTSVSTAYLQISSLKAEDTAVYYCTRDHPLGLDYWGQGTLVTVSSDIQVTQSPSSLSASVGDRVTITCITSQSVDVNGLSYLNWYQQKPGKVTKFLIYKASNLGSGVPSRFSGSGSGTDFTLTISSLQPEDVATYYCQQSREDPYTFGQGTKVEIK |
|  |  | 5.7 | CID_328 (scFv) scFv: EVQLVQSGPELKKPGASVKVSCKGSGYTFTDLGMNWVRQAPGQGLEWMGWINTQTGEPFYADDFKGRFVFSLDTSVSTAYLQISSLKAEDTAVYFCARDHPLGLDYWGQGTLVTVSSDIQVTQSPSSLSASVGDRVTITCITSQSVDVNGVSYLNWYQQKPGKVPKFLIYKASILRSGVPSRFSGSGSGTDFTLTISSLQPEDVATYYCQQSREDPYTFGQGTKVEIK |
|  |  | 6 | CID_326 (scFv) scFv: EVQLVQSGPELKKPGASVKVSCKASGYTFTDLGMNWVRQAPGQGLEWMGWINTHTGKPFYADDFKGRFVFSLDTSVSTAYLQISSLKAEDTAVYYCTRDHPLGLDYWGQGTLVTVSSDIQVTQSPSSLSASVGDRVTITCITSQSVDVNGVSYLNWYQQKPGKVPKFLIYKASNLRSGVPSRFSGSGSGTDFTLTISSLQPEDVATYYCQQSREDPYTFGQGTKVEIK |
|  |  | 1.2 | CID_437 (scFv) scFv: DIQMTQSPILLSASVGDRVTITCRASQDVSTAVAWSQQRTNGSPRLLIYSASSLYSGVPSRFSGSRSGTDFTLTISSLQPEDIADYYCQQPPYTPPTFGAGTKVEIKEVQLVESGGGLVQPGGSLRLSCAASGFNIRDTFIHWVRQSPGKGLEWVADIDPDNGDTRYADSVKGRFTISADTSKNTAYLQMNSLRAEDTAIYYCSREGEDGYNAWDLWGQGTLVTVSS |

More lines, now with the values behind:

| Binder | EC50 [1] [nM] | EC50 [2] [nM] | EC50 [3] [nM] |
| --- | --- | --- | --- |
| CID_251 (scFv) scFv: EVQLVQSGAEVKKPGSSVKVSCKASGDTFTSYSFNWVRQAPGQGLEWMGRIITILDDTEYAPHLQGRVTITADKSTSTVYLELRNLRSDDTAVYFCAGVYEGPNSEGSYDDYGFLKHWGQGTLVTVSSDIVMTQSPATLSVSPGERATLSCRASESVANDLAWYQQKPGQVPRLLIYGASTRATGVPARFSGSGSGAEFTLTISSLQSEDFAVYYCQQYANWPPRETFGQGTRLEIK |  |  | 1 |
| CID_323 (scFv) scFv: EVQLVQSGPELKKPGASVKVSCKASGYTFTDLGMNWVRQAPGQGLEWMGWINTHTGMPFYADDFKGRFVFSLDTSVSTAYLQISSLKAEDTAVYYCARDHPLGLDYWGQGTLVTVSSDIQVTQSPSSLSASVGDRVTITCITSQSVDVNGVSYLNWYQQKPGKVPKFLIYKASNLRPGVPSRFSGSGSGTDFTLTISSLQPEDVATYYCQQSREDPYTFGQGTKVEIK |  |  | 5.2 |
| CID_329 (scFv) scFv: EVQLVQSGPELKKPGASVKVSCKGSGYTFTDLGINWVRQAPGQGLEWMGWINTHTGEPFYADDFKGRFVFSLDTSVSTAYLQISSLKAEDTAVYFCTRDHPLGLDYWGQGTLVTVSSDIQVTQSPSSLSASVGDRVTITCITSQSVDVNGVSYLNWYQQKPGKVPKFLIYKASNLRPGVPSRFSGSGSGTDFTLTISSLQPEDVATYYCQQSREDPYTFGQGTKVEIK |  |  | 8.6 |
| CID_330 (scFv) scFv: EVQLVQSGPELKKPGASVKVSCKGSGYTFTDLGINWVRQAPGQGLEWMGWINTHTGEPYYADDFKGRFVFSLDTSVSTAYLQISSLKAEDTAVYYCARDHPLGLDYWGQGTLVTVSSDIQVTQSPSSLSASVGDRVTITCITSQSVDVNGVSYMNWYQQKPGKVPKFLIYKAVNLRPGVPSRFSGSGSGTDFTLTISSLQPEDVATYYCQQSREDPYTFGQGTKVEIK |  |  | 17.7 |
| CID_327 (scFv) scFv: EVQLVQSGPELKKPGASVKVSCKGSGYTFTDLGMGWVRQAPGQGLEWMGWINTQTGEPFYADDFKGRFVFSLDTSVSTAYLQISSLKAEDTAVYYCTRDHPLGLDYWGQGTLVTVSSDIQVTQSPSSLSASVGDRVTITCITSQSVDVAGVSYLNWYQQKPGKVPKFLIHKASNLRSGVPSRFSGSGSGTDFTLTISSLQPEDVATYYCQQAREDPYTFGQGTKVEIK |  |  | 4.5 |
| CID_436 (scFv) scFv: DIQMTQSPILLSASVGDRVTITCRASQDVSTAVAWSQQRTNGSPRLLIYSASSLYSGVPSRFSGSRSGTDFTLTISSLQPEDIADYYCQQPTYTPPTFGAGTKVEIKEVQLVESGGGLVQPGGSLRLSCAASGFNIRDTYIHWVRQSPGKGLEWVADIDPDNGDTRYADSVKGRFTISADTSKNTAYLQMNSLRAEDTAIYYCSRDLADGYNAFDRWGQGTLVTVSS |  |  | 3.4 |
